According to patent US20040223966A1 (Pfizer, published 2004):

Target: T1, ActRIIB-Fc (human)
T1 construct: The leader is stated as aa 1-21; also called ActRIIB fusion polypeptide; recombinant ActRIIB-Fc
Experiment: ELISA: ActRIIB-Fc coated at 1 ug/ml, biotinylated ligand titrated, SA-HRP detection
Procedure: Biotinylated mature BMP-11 was prepared from BMP-11 latent complex in the same manner as described above. Recombinant ActRIIB-Fc, prepared as described in Examples 3 and 4, was coated on 96-well flat-bottom assay plates (Costar, NY, Cat. No. 3590) at 1 μg/ml in 0.2 M sodium carbonate buffer (pH 10) overnight at 4° C. Plates were then blocked with 1 mg/ml bovine serum albumin and washed following standard ELISA protocol. 100 μl aliquots of biotinylated GDF-8 or BMP-11 at various concentrations were added to the blocked ELISA plate, incubated for 1 hr and washed. The amount of bound GDF-8 or BMP-11 was detected by Streptavidin-Horseradish peroxidase (SA-HRP, BD PharMingen, San Diego, Calif., Cat. No. 13047E) followed by the addition of TMB (KPL, Gaithersburg, Md., Cat. No. 50-76-04). Colorimetric measurements were done at […] in a Molecular Devices microplate reader.

T1 sequence (chain, as listed by the source): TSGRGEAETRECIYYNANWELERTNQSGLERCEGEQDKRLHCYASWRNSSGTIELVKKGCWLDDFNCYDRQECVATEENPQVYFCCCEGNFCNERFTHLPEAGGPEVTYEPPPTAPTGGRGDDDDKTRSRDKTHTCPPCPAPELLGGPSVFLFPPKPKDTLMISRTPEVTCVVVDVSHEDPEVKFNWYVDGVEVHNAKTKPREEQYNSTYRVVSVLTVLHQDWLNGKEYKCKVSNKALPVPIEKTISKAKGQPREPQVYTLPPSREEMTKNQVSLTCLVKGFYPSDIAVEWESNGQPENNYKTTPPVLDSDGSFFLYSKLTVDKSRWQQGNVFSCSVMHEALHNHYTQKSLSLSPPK

B1: biotinylated mature BMP-11 (ligand, human, UniProt O95390 299-407, looked up)
chain: NLGLDCDEHSSESRCCRYPLTVDFEAFGWDWIIAPKRYKANYCSGQCEYMFMQKYPHTHLVQQANPRGSAGPCCTPTKMSPINMLYFNDKQQIIYGKIPGMVVDRCGCS
modifications: biotinylated with EZ-link Sulfo-NHS-Biotin, in the same manner as GDF-8; sites not stated
notes: mature; Active mature BMP-11 dimer purified from a cell line expressing recombinant human BMP-11; also called biotinylated BMP-11; GDF-11
  EC50: 0.04 µg/mL
